Test results from PMC5861054, “Crystal structure of an intramembranal phosphatase central to bacterial cell-wall peptidoglycan biosynthesis and lipid recycling” (Nature Communications, 2018).

Biological target: the molecule itself
Assay: cross-linking; purified UppP, room temperature 30 min, 50-fold molar excess DSS or EGS, quenched with 50 mM Tris, 12% SDS-PAGE

B1: Undecaprenyl pyrophosphate phosphatase (UppP) from Escherichia coli (enzyme, Escherichia coli K-12, UniProt P60932 1-273, looked up)
chain: MSDMHSLLIAAILGVVEGLTEFLPVSSTGHMIIVGHLLGFEGDTAKTFEVVIQLGSILAVVVMFWRRLFGLIGIHFGRPLQHEGESKGRLTLIHILLGMIPAVVLGLLFHDTIKSLFNPINVMYALVVGGLLLIAAECLKPKEPRAPGLDDMTYRQAFMIGCFQCLALWPGFSRSGATISGGMLMGVSRYAASEFSFLLAVPMMMGATALDLYKSWGFLTSGDIPMFAVGFITAFVVALIAIKTFLQLIKRISFIPFAIYRFIVAAAVYVVFF
notes: Undecaprenyl pyrophosphate phosphatase (UppP, BacA), Escherichia coli K-12 (ATCC 10798), full length, residues 1-273; Integral membrane protein, in DDM detergent (SEC, cross-linking) or monoolein lipid cubic/sponge phase (crystals); also called EcUppP; BacA; source: E. coli C41, solubilized from membranes in DDM, purified (Ni-NTA, thrombin cleavage, gel filtration); not shown: His6, N-terminal, …
stoichiometry N: 2
